Experimental data published in paper PMC2396507, “Analysis of the DNA Binding Activity of BRCA1 and Its Modulation by the Tumour Suppressor p53”.

Columns and labels:
p53 (GST fusion) [1] = target: T1, p53 (GST fusion) (UniProt P04637 1-393); test: EMSA; 100-500 nM GST-p53, no BRCA1; no binding at 200 nM (lane 8); 50 mM NaCl, 10 mM Tris-HCl pH 8.0, 0.5 mM EDTA, 1 mM DTT, 5% glycerol; 6% native PAGE in TAE at 4 C; incubation temperature not stated; conditions: protein: recombinant; tags: N-terminal GST, uncleaved (pGEX2TKp53); chain copies: 4; label: 5'-32P when used as probe; four-way junction
T1 sequence (P04637 whole entry, the tested form may be a part): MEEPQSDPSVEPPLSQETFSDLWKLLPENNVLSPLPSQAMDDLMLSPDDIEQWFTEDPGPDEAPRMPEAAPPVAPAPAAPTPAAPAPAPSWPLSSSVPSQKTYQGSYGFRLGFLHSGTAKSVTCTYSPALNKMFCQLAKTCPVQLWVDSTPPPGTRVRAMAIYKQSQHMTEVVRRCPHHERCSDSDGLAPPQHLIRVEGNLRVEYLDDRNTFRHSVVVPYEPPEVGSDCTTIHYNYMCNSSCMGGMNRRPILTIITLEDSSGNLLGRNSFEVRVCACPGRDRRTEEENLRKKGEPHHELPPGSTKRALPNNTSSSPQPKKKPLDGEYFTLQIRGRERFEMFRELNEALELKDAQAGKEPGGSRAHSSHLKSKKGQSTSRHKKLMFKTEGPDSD

BRCA1 230-534 [2] = target: T2, BRCA1 230-534 (UniProt P38398 230-534); test: competition EMSA; 0.5 uM labelled linear duplex, 5 uM P1; 50 mM NaCl, 10 mM Tris-HCl pH 8.0, 0.5 mM EDTA, 1 mM DTT, 5% glycerol; 6% native PAGE in TAE at 4 C; incubation temperature not stated; conditions: protein: recombinant, tags: none stated (expressed from pET22b), label: 5'-32P when used as probe
T2 sequence (P38398 230-534): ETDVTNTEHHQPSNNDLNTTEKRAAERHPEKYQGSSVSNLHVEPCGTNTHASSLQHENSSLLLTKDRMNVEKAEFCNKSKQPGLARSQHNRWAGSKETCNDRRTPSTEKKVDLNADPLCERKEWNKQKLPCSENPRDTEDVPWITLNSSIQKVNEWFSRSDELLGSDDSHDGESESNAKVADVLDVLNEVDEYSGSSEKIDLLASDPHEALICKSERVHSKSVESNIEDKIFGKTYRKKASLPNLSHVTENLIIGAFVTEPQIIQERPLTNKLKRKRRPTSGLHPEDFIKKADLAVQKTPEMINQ

p53 (GST fusion) [3] = target: T1, p53 (GST fusion); test: EMSA; 100-500 nM GST-p53, no BRCA1; 50 mM NaCl, 10 mM Tris-HCl pH 8.0, 0.5 mM EDTA, 1 mM DTT, 5% glycerol; 6% native PAGE in TAE at 4 C; incubation temperature not stated; conditions: protein: recombinant, tags: N-terminal GST, uncleaved (pGEX2TKp53), chain copies: 4, label: 5'-32P when used as probe
BRCA1 230-534 [4] = target: T2, BRCA1 230-534; test: EMSA; 1-5 uM P1, 0.5 uM DNA; 50 mM NaCl, 10 mM Tris-HCl pH 8.0, 0.5 mM EDTA, 1 mM DTT, 5% glycerol; 6% native PAGE in TAE at 4 C; incubation temperature not stated; conditions: protein: recombinant; tags: none stated (expressed from pET22b); label: 5'-32P when used as probe; duplex
[5] = duplex with C:C mismatches (design after triple lesions)

B1: four-way junction DNA (structured_DNA)
DNA 1: AGATCTGGCGTTAGGTGATACCGATGCATC
DNA 2: CATGCATCGGTATCAGGCTTACGACTAGTG
DNA 3: CACTAGTCGTAAGCCACTCGTGCTGAATTC
DNA 4: GAATTCAGCACGAGTCCTAACGCCAGATCT
- binding result (p53 (GST fusion) [1]): binds
- binding signal (BRCA1 230-534 [2]; four-way junction): 91 % reduction of P1 bound to labelled linear duplex at equimolar competitor

B2: C:C mismatch DNA (dsDNA)
DNA 1: CCCTCGGAGCACTGCACAACCCCTGGCCGCCG
DNA 2: CGGCGGCCAGCGGTTCTGCACTGCTCCGAGGG
- binding result (p53 (GST fusion) [3]; [5]): no binding
- binding signal (BRCA1 230-534 [2]; [5]): 70 % reduction of P1 bound to labelled linear duplex at equimolar competitor

B3: bulge containing DNA (dsDNA)
DNA 1: CACGCTAAGTCCGATGCGTGAGATCCGC
DNA 2: GCGGATCTCACGCGTATCGGACTTAGCGTG
- binding result (p53 (GST fusion) [3]; duplex with bulge): no binding
- binding signal (BRCA1 230-534 [2]; duplex with bulge): 65 % reduction of P1 bound to labelled linear duplex at equimolar competitor

B4: linear duplex DNA (dsDNA)
DNA 1: CCCTCGGAGCACTGCACAACCCCTGGCCGCCG
DNA 2: CGGCGGCCAGGGGTTGTGCAGTGCTCCGAGGG
- binding result (BRCA1 230-534 [4]): binds
